This note sets out measurements from patent publication US20130323237A1 (Novartis, published 2013).

Changes are numbered by the printed parent chain.

B1: MOR04494 Fab (Fab, V domains shown)
VH: QVQLVESGGGLVQPGGSLRLSCAASGFTFSSYYMSWVRQAPGKGLEWVSNISYDSSDTYYADSVKGRFTISRDNSKNTLYLQMNSLRAEDTAVYYCARQQYFDHIDIWGQGTLVTVSS
VL: DIELTQPPSVSVAPGQTARISCGGDSLGGKYVYWYQQKPGQAPVLVIYGDSKRPSGIPERFSGSNSGNTATLTISGTQAEDEADYYCQSYTNALSTVFGGGTKLTVLG
notes: carries two C-terminal tags (FLAG and 6xHis)
B2: MOR04832 Fab (Fab, V domains shown)
VH: QVQLVQSGAEVKKPGSSVKVSCKASGGTFSSYAISWVRQAPGQGLEWMGNIYPIFGYANYAQKFQGRVTITADESTSTAYMELSSLRSEDTAVYYCARYGQYGQHFSHGGMDVWGQGTLVTVSS
VL: DIQMTQSPSSLSASVGDRVTITCRASQDISISLTWYQQKPGKAPKLLIYGAFSLQSGVPSRFSGSGSGTDFTLTISSLQPEDFATYYCQQYYGTSATFGQGTKVEIKR
notes: as for B1
B3: MOR04497 Fab (Fab, V domains shown)
VH: QVQLVESGGGLVQPGGSLRLSCAASGFTFSNHALSWVRQAPGKGLEWVSGIQYDGSNTGYADSVKGRFTISRDNSKNTLYLQMNSLRAEDTAVYYCARYYGYSYMDYWGQGTLVTVSS
VL: DIELTQPPSVSVAPGQTARISCSGDNLGSKYVHWYQQKPGQAPVLVIYADNNRPSGIPERFSGSNSGNTATLTISGTQAEDEADYYCQSYDHMLQVFGGGTKLTVLG
notes: as for B1
B4: MOR04493 Fab (Fab, V domains shown)
VH: QVQLVQSGAEVKKPGSSVKVSCKASGGTFSSYAISWVRQAPGQGLEWMGGIIPDFGWANYAQKFQGRVTITADESTSTAYMELSSLRSEDTAVYYCARSGMFYSILFDYWGQGTLVTVSS
VL: DIQMTQSPSSLSASVGDRVTITCRASQDIYNYLNWYQQKPGKAPKLLIYGASSLQSGVPSRFSGSGSGTDFTLTISSLQPEDFAVYYCQQQNDYPLTFGQGTKVEIKR
notes: as for B1
B5: MOR04496 Fab (Fab, V domains shown)
VH: QVQLVESGGGLVQPGGSLRLSCAASGFTFSSYAISWVRQAPGKGLEWVSSISYSGSSTYYADSVKGRFTISRDNSKNTLYLQMNSLRAEDTAVYYCARMEYWYHLLYMDYWGQGTLVTVSS
VL: DIVLTQSPATLSLSPGERATLSCRASQSIGDNYLAWYQQKPGQAPRLLIYDANNRATGVPARFSGSGSGTDFTLTISSLEPEDFATYYCQQYDDHPLTFGQGTKVEIKR
notes: as for B1
B6: MOR04609 Fab (Fab, V domains shown)
VH: QVQLQQSGPGLVKPSQTLSLTCAISGDSVSSNSAAWGWIRQSPGRGLEWLGRIYYRSKWLNDYAVSVKSRITINPDTSKNQFSLQLNSVTPEDTAVYYCARDGGWYIDVWGQGTLVTVSS
VL: DIELTQPPSVSVAPGQTARISCSGDNLGSYYANWYQQKPGQAPVLVIYEDKRPSGIPERFSGSNSGNTATLTISGTQAEDEADYYCQSFDSYHSDYVFGGGTKLTVLG
notes: as for B1
B7: MOR05013 Fab (Fab, V domains shown)
VH: QVQLVESGGGLVQPGGSLRLSCAASGFTFSSYYMSWVRQAPGKGLEWVSGIFFDGETYYADSVKGRFTISRDNSKNTLYLQMNSLRAEDTAVYYCARQQYFDHIDIWGQGTLVTVSS
VL: B1 VL
B8: MOR05014 Fab (Fab, V domains shown)
VH: B7 VH with E56T
VL: B1 VL
B9: MOR05012 Fab (Fab, V domains shown)
VH: B7 VH with D54T, A60P
VL: B1 VL
B10: MOR05010 Fab (Fab, V domains shown)
VH: B7 VH with D61G
VL: B1 VL
B11: MOR05015 Fab (Fab, V domains shown)
VH: B7 VH with I51T, E56S
VL: B1 VL
B12: MOR05011 Fab (Fab, V domains shown)
VH: B7 VH with F53Y, E56S, A60P
VL: B1 VL
B13: MOR05024 Fab (Fab, V domains shown)
VH: B2 VH
VL: B2 VL with Y91F, Y92W, G93F, T94E, S95P, A96V
B14: MOR05026 Fab (Fab, V domains shown)
VH: B2 VH
VL: B2 VL with Y91F, Y92W, G93S, T94E, S95P, A96V
B15: MOR05023 Fab (Fab, V domains shown)
VH: B2 VH
VL: B2 VL with Y91F, G93F, T94H, A96P
B16: MOR05025 Fab (Fab, V domains shown)
VH: B2 VH
VL: B2 VL with Y91F, Y92W, G93F, T94H, S95P, A96V
B17: MOR05027 Fab (Fab, V domains shown)
VH: B2 VH
VL: B2 VL with Y91F, Y92W, G93T, T94E, S95P, A96V
B18: MOR05016 Fab (Fab, V domains shown)
VH: B1 VH
VL: DIELTQPPSVSVAPGQTARISCGGDSLGGKYVYWYQQKPGQAPVLVIYGDSKRPSGIPERFSGSNSGNTATLTISGTQAEDEADYYCQSYDLQSLNIVFGGGTKLTVLG
B19: MOR05017 Fab (Fab, V domains shown)
VH: B1 VH
VL: B18 VL with Q93K, I97V
B20: MOR05018 Fab (Fab, V domains shown)
VH: B1 VH
VL: B18 VL with Q93G, I97L
B21: MOR05019 Fab (Fab, V domains shown)
VH: QVQLVESGGGLVQPGGSLRLSCAASGFTFSNHALSWVRQAPGKGLEWVSVISFDGVKFYADSVKGRFTISRDNSKNTLYLQMNSLRAEDTAVYYCARYYGYSYMDYWGQGTLVTVSS
VL: B3 VL
notes: also called MOR5019
B22: MOR05008 Fab (Fab, V domains shown)
VH: B4 VH with D54E, W57F, A58T
VL: B4 VL
B23: MOR05009 Fab (Fab, V domains shown)
VH: B4 VH with G50H, I52S, D54E, W57F, A58T
VL: B4 VL
B24: MOR05020 Fab (Fab, V domains shown)
VH: B3 VH
VL: DIELTQPPSVSVAPGQTARISCSGDNLGSKYVHWYQQKPGQAPVLVIYADNNRPSGIPERFSGSNSGNTATLTISGTQAEDEADYYCSSYDSNSIRVFGGGTKLTVLG
B25: MOR05021 Fab (Fab, V domains shown)
VH: B3 VH
VL: B24 VL with S92L, N93D, S94G, I95V
B26: MOR05022 Fab (Fab, V domains shown)
VH: B3 VH
VL: B24 VL with D91T, S92T, N93S, S94G

The target of the first test is T1, recombinant human TSLP (R&D Systems) (human, UniProt Q969D9 29-159).
T1 construct: also called hTSLP; human thymic stromal lymphopoietin
Description: SPR (Biacore), biotinylated recombinant human TSLP on SA-chip, Fab as analyte. A general note: In SPR one partner is held on a chip, and binding of the other changes the refractive index at the surface.
Description: A respective amount of biotinylated human serum albumin (HSA) was immobilized on the reference flow cell. […] The Fabs were applied in concentration series of 16-500 nM at a flow rate of 20 μl/min. Association phase was set to 60 s and dissociation phase to 120 s.
For B1, the binding result is “binds”.
As to B2, the binding result is “binds”.
Consider B3, for which the binding result is given as “binds”.
For the molecule B4, the binding result is on record as “binds”.
As to B5, the binding result is given as “binds”.
As to B6, the binding result is on record as “binds”.

The target in another test is T1, recombinant human TSLP (R&D Systems). Put plainly: BioVeris electrochemiluminescence screening, Fab in E. coli lysate on biotinylated TSLP coupled to streptavidin beads.
Description: BEL extracts were diluted in assay buffer (PBS/0.05% Tween20/0.5% BSA) for use in BioVeris screening.
As to B7, the binding result is listed as “binds”.
For B8, the binding result is recorded as “binds”.
As to B9, the binding result is “binds”.
B10: the binding result is “binds”.
Consider B11, for which the binding result is reported as “binds”.
Still for that read-out and setting: then B12, with “binds”; and B13, with “binds”; and B14, with “binds”.
Still for that read-out and setting: next, B15: “binds”; B16: “binds”.
For the molecule B17, the binding result was “binds”.
Still for that read-out and setting: then B18, with “binds”.
For the molecule B19, the binding result was “binds”.
For B20, the binding result was “binds”.
B21: the binding result is “binds”.
Consider B22, for which the binding result was “binds”.
Consider B23, for which the binding result is “binds”.
Same read-out and setting: next, B24: “binds”; B25: “binds”; B26: “binds”.
